Laboratory results: doi:10.1101/2022.05.04.490663 (bioRxiv, 2022)

T1: 10xHis-mRuby2-Spt6 (239-1451) (S. cerevisiae, UniProt P23615 239-1451)
T1 sequence (looked up): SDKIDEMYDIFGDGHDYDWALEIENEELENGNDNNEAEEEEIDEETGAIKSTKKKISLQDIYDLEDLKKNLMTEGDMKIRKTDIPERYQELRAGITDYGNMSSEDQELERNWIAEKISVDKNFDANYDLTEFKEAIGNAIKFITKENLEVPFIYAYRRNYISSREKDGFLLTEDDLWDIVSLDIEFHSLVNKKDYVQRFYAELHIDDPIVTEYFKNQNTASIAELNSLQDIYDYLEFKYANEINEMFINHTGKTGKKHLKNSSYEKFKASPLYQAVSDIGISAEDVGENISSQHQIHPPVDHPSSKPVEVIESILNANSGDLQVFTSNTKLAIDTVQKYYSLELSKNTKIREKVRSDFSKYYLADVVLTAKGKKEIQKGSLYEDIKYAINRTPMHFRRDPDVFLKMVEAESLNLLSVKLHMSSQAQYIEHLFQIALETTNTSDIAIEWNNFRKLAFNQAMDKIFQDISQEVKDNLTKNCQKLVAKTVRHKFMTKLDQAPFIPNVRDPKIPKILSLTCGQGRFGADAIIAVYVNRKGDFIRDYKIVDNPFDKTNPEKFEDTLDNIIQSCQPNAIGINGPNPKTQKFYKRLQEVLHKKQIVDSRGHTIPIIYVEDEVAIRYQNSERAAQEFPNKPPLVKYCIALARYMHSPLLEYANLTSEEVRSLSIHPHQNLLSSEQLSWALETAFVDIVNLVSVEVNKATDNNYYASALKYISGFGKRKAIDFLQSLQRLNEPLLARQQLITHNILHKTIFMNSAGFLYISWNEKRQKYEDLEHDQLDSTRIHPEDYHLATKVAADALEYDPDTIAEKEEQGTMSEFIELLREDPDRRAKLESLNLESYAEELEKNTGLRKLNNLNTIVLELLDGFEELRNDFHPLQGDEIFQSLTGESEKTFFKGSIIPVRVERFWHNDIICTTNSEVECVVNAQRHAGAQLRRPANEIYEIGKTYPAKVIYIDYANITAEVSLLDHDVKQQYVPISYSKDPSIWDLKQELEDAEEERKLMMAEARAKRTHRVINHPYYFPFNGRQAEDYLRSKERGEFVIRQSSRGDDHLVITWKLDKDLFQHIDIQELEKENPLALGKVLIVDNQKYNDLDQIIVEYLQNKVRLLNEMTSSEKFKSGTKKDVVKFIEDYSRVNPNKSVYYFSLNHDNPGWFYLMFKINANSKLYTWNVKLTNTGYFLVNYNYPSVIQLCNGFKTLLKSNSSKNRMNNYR

T2: Spt6 (239-1451), untagged (S. cerevisiae, UniProt P23615 239-1451)
T2 sequence (looked up): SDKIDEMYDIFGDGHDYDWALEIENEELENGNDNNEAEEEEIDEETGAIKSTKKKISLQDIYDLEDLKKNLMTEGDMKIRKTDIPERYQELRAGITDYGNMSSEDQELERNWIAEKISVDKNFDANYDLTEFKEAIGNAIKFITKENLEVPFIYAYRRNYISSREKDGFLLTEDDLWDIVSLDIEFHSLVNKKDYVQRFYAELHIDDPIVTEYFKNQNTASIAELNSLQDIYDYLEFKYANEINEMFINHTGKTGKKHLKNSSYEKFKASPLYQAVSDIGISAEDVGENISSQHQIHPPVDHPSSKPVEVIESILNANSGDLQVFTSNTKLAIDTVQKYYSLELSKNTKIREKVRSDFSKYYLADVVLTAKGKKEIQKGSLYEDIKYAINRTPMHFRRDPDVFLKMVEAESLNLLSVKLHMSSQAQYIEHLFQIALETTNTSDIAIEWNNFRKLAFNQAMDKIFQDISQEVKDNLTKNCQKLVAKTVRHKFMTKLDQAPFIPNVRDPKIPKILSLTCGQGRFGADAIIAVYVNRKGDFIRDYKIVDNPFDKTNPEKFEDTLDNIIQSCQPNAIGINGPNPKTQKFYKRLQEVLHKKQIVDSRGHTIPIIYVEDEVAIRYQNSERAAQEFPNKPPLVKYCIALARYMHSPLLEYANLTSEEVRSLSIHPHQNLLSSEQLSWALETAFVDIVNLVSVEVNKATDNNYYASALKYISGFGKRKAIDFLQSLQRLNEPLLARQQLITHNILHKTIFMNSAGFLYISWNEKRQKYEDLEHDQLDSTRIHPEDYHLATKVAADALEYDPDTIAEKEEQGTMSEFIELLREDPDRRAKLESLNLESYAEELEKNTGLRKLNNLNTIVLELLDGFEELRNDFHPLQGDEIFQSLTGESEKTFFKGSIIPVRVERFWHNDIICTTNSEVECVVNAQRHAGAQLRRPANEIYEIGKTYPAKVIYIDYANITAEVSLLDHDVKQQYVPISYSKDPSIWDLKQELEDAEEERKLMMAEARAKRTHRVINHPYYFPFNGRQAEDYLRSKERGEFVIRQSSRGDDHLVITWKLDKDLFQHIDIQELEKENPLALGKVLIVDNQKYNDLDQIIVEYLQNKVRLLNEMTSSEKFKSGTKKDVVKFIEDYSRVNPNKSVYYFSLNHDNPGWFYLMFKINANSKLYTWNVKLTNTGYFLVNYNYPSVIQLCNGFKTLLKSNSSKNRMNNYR


Tests used:
[1] = target: T1, 10xHis-mRuby2-Spt6 (239-1451); assay: native gel or EMSA
[2] = target: T2, Spt6 (239-1451), untagged; assay: fluorescence polarisation

| Kd [1] [nM] | Kd [2] [nM] | binding result [1] | Binder |
| --- | --- | --- | --- |
| ~320 | 770 | – | 10xHis-mClover-Cdc73 (full-length Cdc73) (natural protein, S. cerevisiae, UniProt Q06697 1-393, looked up) MANSLDRLREHLKNGDKLVLKNNEGQSTDDITKATMVETLSSDGSTQDSFPLNEETEIEIDGSLVQLRIIVHCWMNKDSSAADYLADCQNKQLTNVSFLQRTDLINWLSGNTESSQYLKAPGQKGETSDKVDIENKTLAGELSTVKSTTSASLENDSEVSDPVVVETMKHERILVDHNSALRGAKPINFGYLIKDAELKLVQSIKGSLRGSKLPPGHKGAHGRISKTNGSSGGPRKDPIILIPSAASSILTVANIKQFLLESKYVNPRNLPSVPNGLVNIEKNFERISRPIRFIIVDNTRMFTKPEYWDRVVAIFTTGHTWQFNNYQWNSPQELFQRCKGYYFHFAGDSVPQHVQQWNVEKVELDKNKRFKDVEVVRYFWHSLEKELISRGYR |
| – | – | binds | 10xHis-mClover-Cdc73 with the W321A substitution (natural protein, S. cerevisiae, UniProt Q06697 1-393, looked up) MANSLDRLREHLKNGDKLVLKNNEGQSTDDITKATMVETLSSDGSTQDSFPLNEETEIEIDGSLVQLRIIVHCWMNKDSSAADYLADCQNKQLTNVSFLQRTDLINWLSGNTESSQYLKAPGQKGETSDKVDIENKTLAGELSTVKSTTSASLENDSEVSDPVVVETMKHERILVDHNSALRGAKPINFGYLIKDAELKLVQSIKGSLRGSKLPPGHKGAHGRISKTNGSSGGPRKDPIILIPSAASSILTVANIKQFLLESKYVNPRNLPSVPNGLVNIEKNFERISRPIRFIIVDNTRMFTKPEYWDRVVAIFTTGHTAQFNNYQWNSPQELFQRCKGYYFHFAGDSVPQHVQQWNVEKVELDKNKRFKDVEVVRYFWHSLEKELISRGYR |
